From patent publication US20110300138A1 (published 2011)

How the values were obtained:
[1] = target: TSHR260-alkaline phosphatase (TSHR260-AP) (human) (UniProt P05187); assay: TSHR260-AP bridge ELISA, full length TSHR on wells; 0.005 µg/mL, diluted in HBD
[2] = target: TSHR260-alkaline phosphatase (TSHR260-AP) (human) (UniProt P05187); assay: TSHR260-AP bridge ELISA, full length TSHR on wells; 10 µg/mL, diluted in assay buffer
[3] = target: TSHR260-alkaline phosphatase (TSHR260-AP) (human) (UniProt P05187); assay: TSHR260-AP bridge ELISA, full length TSHR on wells; 250 µg/mL, diluted in HBD
[4] = target: TSHR260-alkaline phosphatase (TSHR260-AP) (human) (UniProt P05187); assay: TSHR260-AP bridge ELISA, full length TSHR on wells; 250 µg/mL, diluted in assay buffer
[5] = target: TSHR260-alkaline phosphatase (TSHR260-AP) (human) (UniProt P05187); assay: TSHR260-AP bridge ELISA, full length TSHR on wells; 0.005 µg/mL, diluted in assay buffer
[6] = target: TSHR260-alkaline phosphatase (TSHR260-AP) (human) (UniProt P05187); assay: TSHR260-AP bridge ELISA, full length TSHR on wells; 0.1 µg/mL, diluted in assay buffer
[7] = target: TSHR260-alkaline phosphatase (TSHR260-AP) (human) (UniProt P05187); assay: TSHR260-AP bridge ELISA, full length TSHR on wells; 0.1 µg/mL, diluted in HBD
[8] = target: TSHR260-alkaline phosphatase (TSHR260-AP) (human) (UniProt P05187); assay: TSHR260-AP bridge ELISA, full length TSHR on wells; 10 µg/mL, diluted in HBD

Substance: 5C9 Fab
- Mean absorbance at 405 nm (absorbance at 405 nm) [1]: -0.012
- Mean absorbance at 405 nm (absorbance at 405 nm) [2]: 0.016
- Mean absorbance at 405 nm (absorbance at 405 nm) [3]: -0.008
- Mean absorbance at 405 nm (absorbance at 405 nm) [4]: 0.204
- Mean absorbance at 405 nm (absorbance at 405 nm) [5]: 0
- Mean absorbance at 405 nm (absorbance at 405 nm) [6]: -0.009
- Mean absorbance at 405 nm (absorbance at 405 nm) [7]: -0.009
- Mean absorbance at 405 nm (absorbance at 405 nm) [8]: -0.008
